Drawing on patent US20080182299A1, this text covers LOD for two molecules.

The target in experiment [1] is Mouse monoclonal antibody clone 13A3.G6.H1, lot #18881C, raised against CGEN3901 (SEQ ID NO:50). The experiment can be described thus: antigen capture competitive ELISA format #4, repeatability tests.
For experiment [2] the target is unchanged. The experiment can be described thus: antigen capture competitive ELISA format #4; coat CgenBNP_49; detector 13A3.G6.H1; free peptide spiked in serum as competitor. A general note: In an ELISA, binding on a coated surface is turned into a signal by an enzyme label.
The target is the same in experiment [3]. Description: antibody capture competitive ELISA format #5; coat 13A3.G6.H1; tracer biotin-labeled CgenBNP_29; unlabeled peptide as competitor.

B1: HPWN49 (also called herein CgenBNP_49, SEQ ID NO: 49) (peptide)
peptide: H-HPLGSPGSASDLETSGLQVRAEGSSGGLDSSNERVLTCCPKRPSSFLWN-OH
modifications: cysteine pairing not given here
Consider B1, for which the LOD in experiment [1] was 1 to 3 ng/mL; in experiment [2], 0.6 ng/mL.

B2: AEWN 29 (also called herein CgenBNP_29, SEQ ID NO: 48) (peptide)
peptide: AEGSSGGLDSSNERVLTCCPKRPSSFLWN
In the case of B2, the LOD in experiment [1] was 1 to 3 ng/mL; in experiment [3] it was 5 ng/mL; in experiment [2], 0.3 ng/mL.
